{"source": "paper PMC8534323", "key": {"[1]": {"molecular_target": "enolase (Eno1) (C. albicans (endogenous in strain ATCC 10231)) (UniProt P30575)", "experiment": "SPR"}, "[2]": {"molecular_target": "Phosphoglycerate mutase 1 (Gpm1), recombinant (C. albicans) (UniProt P82612)", "sequence (P82612 whole entry)": "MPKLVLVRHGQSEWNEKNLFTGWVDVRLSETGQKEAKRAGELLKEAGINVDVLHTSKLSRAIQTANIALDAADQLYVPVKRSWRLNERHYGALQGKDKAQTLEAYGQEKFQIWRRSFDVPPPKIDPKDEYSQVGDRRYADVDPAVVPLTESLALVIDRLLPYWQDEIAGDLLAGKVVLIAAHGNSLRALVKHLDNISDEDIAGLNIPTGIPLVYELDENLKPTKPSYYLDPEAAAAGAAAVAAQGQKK", "experiment": "SPR"}, "[3]": {"molecular_target": "Als3 (agglutinin-like sequence protein 3), isolated from the surface of C. albicans (C. albicans (endogenous in strain ATCC 10231)) (UniProt Q59L12)", "experiment": "SPR"}, "[4]": {"molecular_target": "triosephosphate isomerase 1 (Tpi1) (C. albicans (endogenous in strain ATCC 10231)) (UniProt Q9P940)", "sequence (Q9P940 whole entry)": "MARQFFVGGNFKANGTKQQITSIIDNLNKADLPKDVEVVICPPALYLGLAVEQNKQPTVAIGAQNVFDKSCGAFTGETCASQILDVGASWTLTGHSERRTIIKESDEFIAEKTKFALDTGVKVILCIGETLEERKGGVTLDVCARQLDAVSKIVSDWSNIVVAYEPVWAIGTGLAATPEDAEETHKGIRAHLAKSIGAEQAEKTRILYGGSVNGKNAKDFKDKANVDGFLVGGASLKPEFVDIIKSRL", "experiment": "SPR"}, "[5]": {"molecular_target": "enolase (Eno1) (C. albicans (endogenous in strain ATCC 10231)) (UniProt P30575)", "experiment": "ELISA-like microplate ligand-binding assay; fungal protein immobilised on the microplate, soluble fluorescent-labeled histones; saturation one-site binding model"}, "[6]": {"molecular_target": "Als3 (agglutinin-like sequence protein 3), isolated from the surface of C. albicans (C. albicans (endogenous in strain ATCC 10231)) (UniProt Q59L12)", "experiment": "ELISA-like microplate ligand-binding assay; fungal protein immobilised on the microplate, soluble fluorescent-labeled histones; saturation one-site binding model"}, "[7]": {"molecular_target": "Phosphoglycerate mutase 1 (Gpm1), recombinant (C. albicans) (UniProt P82612)", "experiment": "ELISA-like microplate ligand-binding assay; fungal protein immobilised on the microplate, soluble fluorescent-labeled histones; saturation one-site binding model"}}}
{"substance": "LL-37(7)Cit (peptide)", "values": [{"measurement": "decrease of binding against native LL-37", "setting": "[1]", "result": 50, "unit": "%"}, {"measurement": "loss of binding against native LL-37", "setting": "[2]", "result": 75, "unit": "%"}, {"measurement": "decrease of binding against native LL-37", "setting": "[3]", "result": 50, "unit": "%"}]}
{"substance": "cathelicidin-derived peptide LL-37", "values": [{"measurement": "Kd", "setting": "[1]", "result": 14.6, "unit": "nM"}, {"measurement": "Kd", "setting": "[2]", "result": 598, "unit": "nM"}, {"measurement": "Kd", "setting": "[3]", "result": 228, "unit": "nM"}, {"measurement": "Kd", "setting": "[4]", "result": 68.3, "unit": "nM"}]}
{"substance": "histone H2 (from UniProt P0C0S8 1-130) (natural protein)", "values": [{"measurement": "Kd", "setting": "[5]", "result": 911, "unit": "nM"}, {"measurement": "Kd", "setting": "[6]", "result": 1790, "unit": "nM"}]}
{"substance": "histone H3 (from UniProt P68431 1-136) (natural protein)", "values": [{"measurement": "Kd", "setting": "[5]", "result": 1230, "unit": "nM"}, {"measurement": "Kd", "setting": "[7]", "result": 258, "unit": "nM"}, {"measurement": "Kd", "setting": "[6]", "result": 23.4, "unit": "nM"}]}
{"substance": "lactotransferrin (LF) (from UniProt P02788 20-710) (natural protein)", "values": [{"measurement": "Kd", "setting": "[3]", "result": 85.9, "unit": "nM"}]}
{"substance": "myeloperoxidase (MPO) (enzyme)", "values": [{"measurement": "Kd", "setting": "[1]", "result": 78.7, "unit": "nM"}, {"measurement": "Kd", "setting": "[2]", "result": 353, "unit": "nM"}, {"measurement": "Kd", "setting": "[3]", "result": 11.6, "unit": "nM"}, {"measurement": "Kd", "setting": "[4]", "result": 45, "unit": "nM"}]}
